The nanobody polyreactivity screen of Harvey et al. (2022)

Experiment: yeast display, Sf9 membrane polyspecificity reagent, FACS + sequencing; frameworks hold sequencing errors
In short: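 Synthetic nanobody libraries on Saccharomyces cerevisiae BJ5465 were galactose-induced for 36–48 hours, stained 1 hour at 4 °C with 10% biotinylated, detergent-solubilized Sf9 membrane reagent and enriched on streptavidin microbeads. FACS then separated cells into low and high (top ~1%) gates by anti-HA (expression) and streptavidin (reagent binding) fluorescence. Genes were colony-PCR amplified, MiSeq 2 × 250 sequenced and CDR-length filtered. A clone's polyreactivity label is that of its gate of origin.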

Sequence	polyreactivity (PSR sort gate)
QVQLVESGGGLVQAGGSLRLSCAASGRISVYNMGWYRQAPGKERELVAAISNGGSTNYADSVKGRFTISRDNAKNTVYLQMNSLKPEDTAVYYCNRRVPYSFYSRGYYYWGQGTQVTVSS	high polyreactivity
QVQLVESGGGLVQAGGSLRLSCAASGRISWVYPMGWYRKAPGKERELVAAITFSGGSTYYADSVKGRFTISRDNAKNSVYLQMNSLKPEDTAVYYCAADVLAIYSHRYYRYDSWGQGTQVTVSS	high polyreactivity
QVQLVESGGGLVQAGGSLRLSCAASGRISYGYAMGWYRQAPGKERELVAAISRSGGTTYYADSVKGRFTISRDNAKNTVYLQMNSLKPEDTAVYYCNRVWYATDFVNTMGYWGQGTQVTVSS	low polyreactivity
QVQLVESGGGLVQAGGSLRLSCAASGRISYGYVMGWYRQAPGKERELVAAISRTGGNTYYADSVKGRFTISRDNAKNTVYLQMNSLKPEDTAVYYCAKVYKTGITQYDYWGQGTQVTVSS	high polyreactivity
QVQLVESGGGLVQAGGSLRLSCAASGRISYYYMGWYRQAPGKERELVAAISWNGGRTYYADSVKGRFTISRDNAKNTVYLQMNSLKPEDTAVYYCAARFYSRAFWPAYYYWGQGTQVTVSS	high polyreactivity
QVQLVESGGGLVQAGGSLRLSCAASGRITFSHNTMGWYRQAPGKERELVAAISSGGRTNYADSVKGRFTISRDNAKNTVYLQMNSLKPEDTAVYYCARESHYDFIYDGMDYWGQGTQVTVSS	low polyreactivity
QVQLVESGGGLVQAGGSLRLSCAASGRITGIYAMGWYRPAPGKERELVAAITWRGGRTCYADSVKGRFTISRDNAKNSVYLQMNSLKPEDTAVYYCAAELQGAYYFAYYYWGQGTQVTVSS	high polyreactivity
QVQLVESGGGLVQAGGSLRLSCAASGRITVFYTMGWYRQAPGKERELVATITRSGSRTYYADSVKGRFTISRDNAKNTVYLQMNSLKPEDTAVYYCARSQAVYDGWFAKFGYWGQGTQVTVSS	low polyreactivity
QVQLVESGGGLVQAGGSLRLSCAASGRIVEVYAMGWYRQARGKERELVAAISSGGGSTYYADSVKGRFTISRDNAKNTVYLQMNSQKPEDTAVYYCAARKPSVRGAPYYYWGQGTQVTVSS	high polyreactivity
QVQLVESGGGLVQAGGSLRLSCAASGRIVGRHALGWYRQAPGKERELVAAMSSSGGTYYADSVKGRFTISRDKAKNTLYLQMNSLKPEDTAVYYCNARVRTQQRWVDYWGQGTQVTVSS	high polyreactivity
QVQLVESGGGLVQAGGSLRLSCAASGRIVRPNAMGWYRQAPGKERELVAAIRSTVGSTFYADSVKGRFTISRDNAKNTVYLEMISLKPEDTAVYDCAAGTSRQFFYWGQGTQVTVAS	low polyreactivity
QVQLVESGGGLVQAGGSLRLSCAASGRIVSGYAMVWYRQAPGKERELVAAITSGGSTNYADSVKGRFTLSRDNAKNTVYLQMNSLKPEDTAVYYCAADSREVSTTAYYYWGQGTQVTVSS	low polyreactivity
QVQLVESGGGLVQAGGSLRLSCAASGRIWGYAMGLYRQAPGKARELVATITYNSGRTYYADSVKGRFTISRDNAKNTVYLQMNSLKPEDTAVYYCNKDFDGRFDYWGQGTQVNVSS	high polyreactivity
QVQLVESGGGLVQAGGSLRLSCAASGRIYFNAMGWYRQAPGKERELLADISWIGGSTYYADSVKGRFTISRDNGKNTVYLQMNRLKPEYTAVYYCAAVFLSWWDSYDFWGQGTQVTVSS	high polyreactivity
QVQLVESGGGLVQAGGSLRLSCAASGRIYGLYAMGWYRQAPGKERELVAAISEGGGSTNYADSEKGRFTISRDNAKNTFYLQMNSLKPDDTAVYYCAATYRTGVRRYYSWGQGTQVTVSS	low polyreactivity
QVQLVESGGGLVQAGGSLRLSCAASGRIYGVYVMGWSRQAPGKERELVAAISWGGGTYYADSVKGRFTISRDNSKNTVTLKMNSLKPEDTAVYYCNAESYYTMYYWGQGTQVTVSS	low polyreactivity
QVQLVESGGGLVQAGGSLRLSCAASGRIYIDYAMGWYRQAPGKERELVATISESGGSTYYADSVKGRITISRDNAKNTVYLQMNSLKPEDTAVYYCAVDDRSGTVYFYTKFDYWGQGTQVTVSS	low polyreactivity
QVQLVESGGGLVQAGGSLRLSCAASGRIYKRYDMGWYRQAPGKERELVAAITGTGGSTYYADSVKGRFTISRDNAKNTVYLQMNSLKPEDTAVYYCAARLYNTYSGFAFGYWGQGTQVTVSS	high polyreactivity
QVQLVESGGGLVQAGGSLRLSCAASGRIYNSNAMGWYRQAPGKERQLVAAITTSGASTYYADSVKGRFTISRDNAKNTVYLQMNSLKPEDTSVYYCATYAVVYPFAMDYWGQGTQVTVSS	low polyreactivity
QVQLVESGGGLVQAGGSLRLSCAASGRIYRENAMGWYRQAPGKEREFVAVISISDASTYYADSVKGRFTISRDNAKNTVYLQMNSLKPVDTAVYYCAADLTDFLYVSSDFWGQGTQVTVSS	low polyreactivity
QVQLVESGGGLVQAGGSLRLSCAASGRIYTMGWYRQAPGKERELVAAISKSGGSTSYADSVKGRFTISRDNAKNTVYLQMNSLKPEDTAVYYCAALHYGRYRMDYWGQGTQVTVSS	high polyreactivity
QVQLVESGGGLVQAGGSLRLSCAASGRLFKDNAMGGYRQAPGKERELVATIDSGGDTNYADSVKGRFTISRDNAKNTVYLQMNSLKPEDTAVYYCNTAGRGGIPSGFDYWGQGTQVTVSS	low polyreactivity

Sequence	polyreactivity (PSR sort gate)
QVQLVESGGGLVQAGGSLRLSCAASGRLFKRYNMGWYRQGPGKDRELVAAIRSGGSTNYADSVKGRFTISRDNAKNTVYLPMNSLKPEDTAVYYCAARSTAYRGGSYAYDYWGQGTQVTVSS	high polyreactivity
QVQLVESGGGLVQAGGSLRLSCAASGRLFSRYAMGWNRQAPGQQRELVAAITRGGGSTYYADSVKGRFTISRDNAKNTVYLQMNSLKPEDTAVYYCNKASVQYYGDVYWGQGTQVTVSS	high polyreactivity
QVQLVESGGGLVQAGGSLRLSCAASGRLFYYNAMGWYRQAPGKERELVAAISWSGGSTYYADSVKGRFTISRDNAKNTVYLQMNSLKPEDTAVYYCAVDVYGYTPRPTREPLIYEYWGQGTQVTVSS	low polyreactivity
QVQLVESGGGLVQAGGSLRLSCAASGRLLGFNVMGWYRQAPGKERELVAAITTSGGSTYYADSVKGRFTISRDNAKNTVYLQMHSLKPEDTAVYYCAAVKVQITLLHGDDYWGQGTQVTVSS	high polyreactivity
QVQLVESGGGLVQAGGSLRLSCAASGRNFFRYAMGWYRQAPGKERELVAAISRSGGRTYYADSVKGRCTLSRDNAKNTVFLQMNSLNREDTAVYYCAVRYRQYSQTVASDYGYWGPGTQVTVSS	high polyreactivity
QVQLVESGGGLVQAGGSLRLSCAASGRNFGYNAMGWYRQAPGKERELVAAITTSGGSTYYADSVKGRFTISRDNAKNTVYLQMNSLKPEDTAVYYCARDSLQVLYPYASDDSWGQGTQVTVSS	low polyreactivity
QVQLVESGGGLVQAGGSLRLSCAASGRNFKPNVMGWYRQAPGKERELVAAISWSGGASTYYADSVKGRFTISRDNAKNTVYLQMNSLKREDTAVYYCNAAKRNRYDYWGQGTQVTVSS	low polyreactivity
QVQLVESGGGLVQAGGSLRLSCAASGRNFKYYTMGWYRQAPGKETELVAAISSGGRTKYADSVKGRFTISRDNAKNTVYLQMNSLKPEDTAVYYCNAGYPYPFYRSSQTGGYDYWGQGTQVTVSS	high polyreactivity
QVQLVESGGGLVQAGGSLRLSCAASGRNFNKNAMGWYRQAPGKERELVAAITDRGGSTNYADSVKGRFTISRDNAKNTVYLQMNSLKPEDTAVYYCNTGRKLVYRYPGYDYWGQGTQVTVSS	low polyreactivity
QVQLVESGGGLVQAGGSLRLSCAASGRNFNVKAMGWYIQAPGKESELVAGITRGGITTYADSVKGRFTISRDNAKNSVYLQMYSLKPVDTAVYYCAAVGWGSRYDTWYYLYDYWGQGSQVTVSS	high polyreactivity
QVQLVESGGGLVQAGGSLRLSCAASGRNFPSYAMGWYRQAPGKERELVAAISFSGASTYYADSVKGRFTFSRDNAKNTVYLQMNSLKPEDTAVYYCNASGVGADVQWSWEEGDYWGQGTQVTVSS	low polyreactivity
QVQLVESGGGLVQAGGSLRLSCAASGRNFPVNAMGWYRQAPGKERELVATISYSGSSTYYADSVKARFTISRDNAKNTVYLQMNSLKPEDTAVYYCNADAESFDDGYWGQGTEVTVSS	low polyreactivity
QVQLVESGGGLVQAGGSLRLSCAASGRNFPYYAMGWYRQAPGKERELVATISSSGGSTYYADSVKGRFTISRDNAKNTVYLQMNSLKPEDTAVYYCAADWYGYRQFHGYYWGQGTQVTVSS	high polyreactivity
QVQLVESGGGLVQAGGSLRLSCAASGRNFRKYTMGWYRQAPGKERELVATISNSGVSTYYADSVKGRFTISRDYAKNTVYLQMNSLKPEDTAVYYCSKEWLYYNGFFRSYYWGQGTQVNVSS	high polyreactivity
QVQLVESGGGLVQAGGSLRLSCAASGRNFRYNAMGWYRQAPGKERELVAAISSGDRTNYADSVKGRFTISRDNAKNTVYLQKKSLKPVDTAVYYCAAPTDSYYEFDYWGQGTQGTVSS	low polyreactivity
QVQLVESGGGLVQAGGSLRLSCAASGRNFSRYAMGWYRQAPGKERELVAAISRRGGSTYYADSVKGRFTISRDNAKNTVYLQMNSLKPEDTAVYFCAKYPSAYVDSDVTYDMDYWGQGTQVTVSS	low polyreactivity
QVQLVESGGGLVQAGGSLRLSCAASGRNFYFYAMGWYRQAPGKEREFVATISSTGGSTYYADSVKGRFTISRDNAKNTVYLQMNSLKPEDTAVYYCAVRGWYPGFRYDYWGQGTQVTVSS	low polyreactivity
QVQLVESGGGLVQAGGSLRLSCAASGRNFYRYGMGWYRQAPGKERELVAAITYGGGSTYADSVKGRFTISRDNAKNTVYLQMNSLKPEDTAVYYCNARSRYRHYGFDYWGQGTQVTVSS	high polyreactivity
QVQLVESGGGLVQAGGSLRLSCAASGRNLEYYAMGWYRQAPGQERELVATITSRGDTTHYADSVKGRFTISRDNAKNTVYLQMNSLKPEDTAVYYCAAAYVEYTPYRWYGDDYWGQGTQVTVSS	low polyreactivity
QVQLVESGGGLVQAGGSLRLSCAASGRSFDRNAMGLYRQAPGKERELVADITSIGTRTYYADSVKGRFTISRDNAKNSVYLQMNSLKPEDTAVYYCAADYYYSYWYWFSSSYGYWGQGTQVTVSS	high polyreactivity
QVQLVESGGGLVQAGGSLRLSCAASGRSFEVYVMGWYRQAPGKERELVAAISTGGSTYYADSVKGRFTISRDNAKNTVYLQMNSLKPEDTAVYYCAAKRTGNGYPRSGYSRYEYWGQGTQVTVSS	high polyreactivity
